According to US11198713B2, “Agents modulating beta-catenin functions and methods thereof” (FOG PHARMACEUTICALS, INC., priority 2017, dated 2021):
Numbered stars: 1 amine (or outer) side, 2 acyl side, 3 side chain; on linkers, the order of the positions; unused ones are H or OH. Bridge positions count the residues as written; N and C are the ends. Square brackets hold non-standard residues; d marks the D form. R7 = (R)-2-(6-heptenyl)alanine, C=CCCCCC[C@@](C)(N[*:1])C(=O)[*:2]; MG = Monomer G = RdN, acyclic alkyl-N(Alloc) stapling residue; R5 = C=CCCC[C@@](C)(N)C(=O)O

T1: biotinylated beta-catenin (Homo sapiens, UniProt P35222)
T1 sequence (P35222 1-781): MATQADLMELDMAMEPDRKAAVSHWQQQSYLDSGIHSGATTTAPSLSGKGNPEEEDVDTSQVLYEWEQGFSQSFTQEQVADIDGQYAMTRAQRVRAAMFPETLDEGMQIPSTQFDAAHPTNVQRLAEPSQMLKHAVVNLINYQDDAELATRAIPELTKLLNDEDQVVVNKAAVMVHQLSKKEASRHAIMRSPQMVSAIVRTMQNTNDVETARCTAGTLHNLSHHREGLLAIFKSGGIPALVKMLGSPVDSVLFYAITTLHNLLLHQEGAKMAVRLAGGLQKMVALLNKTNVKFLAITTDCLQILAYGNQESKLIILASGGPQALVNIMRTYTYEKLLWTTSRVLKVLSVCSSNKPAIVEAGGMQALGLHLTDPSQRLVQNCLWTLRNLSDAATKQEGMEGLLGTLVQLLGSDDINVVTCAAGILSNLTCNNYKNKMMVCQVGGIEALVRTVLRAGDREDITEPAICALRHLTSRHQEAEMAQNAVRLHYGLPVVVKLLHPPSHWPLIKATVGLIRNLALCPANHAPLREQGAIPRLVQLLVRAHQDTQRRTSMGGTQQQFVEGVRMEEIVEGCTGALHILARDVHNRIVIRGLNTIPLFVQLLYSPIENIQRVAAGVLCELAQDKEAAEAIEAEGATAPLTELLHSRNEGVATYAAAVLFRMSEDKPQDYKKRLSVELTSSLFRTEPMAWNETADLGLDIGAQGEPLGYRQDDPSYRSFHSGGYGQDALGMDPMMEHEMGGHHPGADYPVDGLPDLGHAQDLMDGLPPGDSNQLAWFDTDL

T2: full-length beta-catenin (UniProt P35222 2-781, limits assumed)
T2 construct: mature; also called full-length ß-Catenin; β-catenin
T2 sequence (looked up): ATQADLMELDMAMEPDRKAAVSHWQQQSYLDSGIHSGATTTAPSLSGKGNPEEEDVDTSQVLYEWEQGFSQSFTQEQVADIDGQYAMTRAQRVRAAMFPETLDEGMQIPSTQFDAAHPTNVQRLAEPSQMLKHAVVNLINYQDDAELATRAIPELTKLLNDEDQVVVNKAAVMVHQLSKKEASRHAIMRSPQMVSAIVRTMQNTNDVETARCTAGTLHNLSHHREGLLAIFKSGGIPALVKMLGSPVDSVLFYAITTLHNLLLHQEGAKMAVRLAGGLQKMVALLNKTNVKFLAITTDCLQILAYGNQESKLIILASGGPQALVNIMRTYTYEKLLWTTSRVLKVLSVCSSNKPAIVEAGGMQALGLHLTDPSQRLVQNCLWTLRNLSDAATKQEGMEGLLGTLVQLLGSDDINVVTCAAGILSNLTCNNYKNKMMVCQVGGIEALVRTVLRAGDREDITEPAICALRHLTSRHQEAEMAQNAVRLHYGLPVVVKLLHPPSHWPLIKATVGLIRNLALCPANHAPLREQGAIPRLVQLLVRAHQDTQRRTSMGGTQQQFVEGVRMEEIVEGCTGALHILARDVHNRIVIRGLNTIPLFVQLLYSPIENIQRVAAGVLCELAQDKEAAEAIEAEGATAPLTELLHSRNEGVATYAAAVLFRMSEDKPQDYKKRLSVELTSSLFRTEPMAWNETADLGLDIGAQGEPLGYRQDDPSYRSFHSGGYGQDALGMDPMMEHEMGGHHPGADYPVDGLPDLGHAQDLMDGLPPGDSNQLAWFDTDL


Tests used:
[1] = molecular target: T1, biotinylated beta-catenin; test: Surface Plasmon Resonance (Biacore); assay type: binding; conditions: Biacore, biotinylated beta-catenin; read-out: Kd
Experimental: Additionally or alternatively, binding to beta-catenin may be measured by Surface Plasmon Resonance. In an exemplary assay, approximately 6 nmol dried peptide diluted in buffer (50 mM Tris pH 8.0, 300 mM NaCl, 2% glycerol, 0.5 mM TCEP, 0.5 mM EDTA, 0.005% Tween-20, 1 mg/mL CM Dextran, 0.02% w/v sodium azide) was assayed on a Biacore X100 using the Biacore Biotin CAPture Kit (GE Healthcare) and biotinylated beta-catenin. Results were analyzed using the Biacore X100 Evaluation Software. […] FPO217c (Isomer 2) bound to the armadillo domain of β-catenin with a Kd of 2 nM.

[2] = molecular target: T2, full-length beta-catenin; test: competition FP, grade of FP EC50 (++: 100-500 nM)
Experimental: (§1) In some embodiments, a competition fluorescence polarization assay is used to assess binding of provided compounds to beta-catenin. In an exemplary procedure, solutions of provided compounds, e.g., provided stapled peptides, were prepared in a buffer (e.g., 50 mM Tris pH 8.0, 250 mM NaCl, 2% glycerol, 0.5 mM EDTA, 0.02% w/v sodium azide) using a 3-fold serial dilution from 5 µM. Probe solution (15 nM full-length ß-Catenin, 20 nM FITC labeled peptide in buffer) was prepared and incubated for a period of time, e.g., 5 minutes, and the a volume, e.g., 40 µL per well plated in suitable plate, e.g., a black polystyrene 384-well plate (Corning). Equal volume of the serial diluted peptide was added to the plate and incubated protected from light for 15 minutes prior to read. Reads were performed on a Spectramax M5 (Molecular Devices) in duplicate. Suitable probe was FITC-PEG1-PQ-S5-ILD-S5-HVRRVWR (SEQ ID NO: 1) (hydrocarbon staple formed by two S5 via olefin metathesis) and/or FITC-bA-PQ-S5-ILD-S5-HVRRVWR (SEQ ID NO: 3) (hydrocarbon staple formed by two S5 via olefin metathesis). […] Another peptide, FPO217c (Ac-AR_8ILDAHIM$B5$RVW (SEQ ID NO: 280), with N-terminal proline removed and valine replaced with isoleucine compared to FP0025c) was prepared.

[3] = molecular target: T2, full-length beta-catenin; test: competition FP
Experimental: as §1

| Molecule | Kd [1] [nM] | FP EC50 [2] [nM] | EC50 [3] [nM] |
| --- | --- | --- | --- |
| Ac-PQ[R7]ILD[MC]HVRRVWR-NH2 (staple 3-7; also: carbamate staple (-N(R')-C(O)-O-) by ring-closing olefin metathesis, also called R7/PR) [FP0768c] | – | 100 to 500 | 150 |
| Ac-PQ[MG]ILD[R5]HVRRVWR-NH2 (staple 3-7; also: carbamate staple (-N(R')-C(O)-O-) by ring-closing olefin metathesis) [FP0782c] | – | 100 to 500 | 380 |

The next lines start with the values.

| Kd [1] [nM] | FP EC50 [2] [nM] | EC50 [3] [nM] | Molecule |
| --- | --- | --- | --- |
| ~13 | – | – | CC[C@H](C)[C@@H]1NC(=O)[C@](C)(NC(=O)[C@H](CCC(N)=O)NC(=O)[C@@H]2CCCN2C(C)=O)CCC=CCOC(=O)N2CC[C@](C(=O)N[C@@H](Cc3c[nH]cn3)C(=O)N[C@H](C(=O)N[C@@H](CCCNC(=N)N)C(=O)N[C@@H](CCCNC(=N)N)C(=O)N[C@H](C(=O)N[C@@H](Cc3c[nH]c4ccccc34)C(=O)N[C@@H](CCCNC(=N)N)C(N)=O)C(C)C)C(C)C)(C2)NC(=O)[C@H](CC(=O)O)NC(=O)[C@H](CC(C)C)NC1=O (single isomer, unassigned) [FP-0765c, Ac-P-Q-R4-I-L-D-PR-H-V-R-R-V-W-R-NH2] |
| ~7 | – | – | CC[C@H](C)[C@@H]1NC(=O)[C@](C)(NC(=O)[C@H](CCC(N)=O)NC(=O)[C@@H]2CCCN2C(C)=O)CCCC=CCOC(=O)N2CC[C@](C(=O)N[C@@H](Cc3c[nH]cn3)C(=O)N[C@H](C(=O)N[C@@H](CCCNC(=N)N)C(=O)N[C@@H](CCCNC(=N)N)C(=O)N[C@H](C(=O)N[C@@H](Cc3c[nH]c4ccccc34)C(=O)N[C@@H](CCCNC(=N)N)C(N)=O)C(C)C)C(C)C)(C2)NC(=O)[C@H](CC(=O)O)NC(=O)[C@H](CC(C)C)NC1=O (single isomer, unassigned) [FP-0766c, Ac-P-Q-R5-I-L-D-PR-H-V-R-R-V-W-R-NH2] |
| ~14 | – | – | CC[C@H](C)[C@@H]1NC(=O)[C@@](C)(NC(=O)[C@H](CCC(N)=O)NC(=O)[C@@H]2CCCN2C(C)=O)CCCC=CCCC[C@@](C)(C(=O)N[C@@H](Cc2c[nH]cn2)C(=O)N[C@H](C(=O)N[C@@H](CCCNC(=N)N)C(=O)N[C@@H](CCCNC(=N)N)C(=O)N[C@H](C(=O)N[C@@H](Cc2c[nH]c3ccccc23)C(=O)N[C@@H](CCCNC(=N)N)C(N)=O)C(C)C)C(C)C)NC(=O)[C@H](CC(=O)O)NC(=O)[C@H](CC(C)C)NC1=O (single isomer, unassigned) [FP-0787c] |
